According to patent US7645871B2, “Tumor inhibition by modulating sprouty expression of activity” (Michigan State University, priority 2005, dated 2010):

Columns and labels:
[1] = test system: PH3MT cells; assay: AG1478 inhibitor study, cell growth in 0.1% serum; type: cell-based, human
Protocol: For AG1478 inhibitor studies, cells were plated at a density of 5,000 cells per 60 mm-diameter dish in medium containing 0.1% serum, and were allowed to grow in the presence or absence of AG1478 at a concentration of 6 μM. Cell growth was monitored by measuring the number of cells every two days. Each experimental repetition included at least two replicates for each cell strain analyzed.
The activation of Ras oncogenes enables cellular growth in the absence of exogenous growth factors (Medema et al. (1993) Crit. Rev. Oncog. 4; Shields et al. (2000) Trends Cell. Biol. 10: 147-154). To determine if the activity of EGFR is necessary for the growth factor independence of H-Ras-transformed cells, measurements were made to determine the ability of PH3MT cells to grow in the presence of the AG1478 inhibitor, a specific inhibitor of EGFR tyrosine kinase activity (Levitzki et al. (1995) Science 267:1782-1788).

[2] = test system: HRas-transformed cells (PH3MT); assay: UV-induced apoptosis assay (AnnexinV-FITC, flow cytometry); type: cell-based, human; details: Ras-transformed cells treated with AG1478
Protocol: Apoptosis was detected by staining the cells with AnnexinV-FITC (BD Biosciences, San Jose, Calif.) according to manufacturer's recommendations. Briefly, cells were plated at a density of 2×10^5 cells/60 mm-dish. 16 hours after plating, the cells were irradiated with UV at a dose of 30-60 J/m^2 and incubated at 37° C. under normal culture conditions for varying time periods. Subsequently, the cells were collected, washed twice with AnnexinV binding buffer and incubated with AnnexinV-FITC at room temperature for 15 mins. The cells were also stained with propidium iodide (PI) to distinguish between live and dead cells. AnnexinV-FITC positive cells were determined by flow cytometry under standard conditions. Cells that stained positively for AnnexinV were considered apoptotic, while cells that were positive for both annexinV and PI were not considered apoptotic. All experiments were repeated at least three times. Ras protects NIH3T3 fibroblasts from apoptosis induced by DNA-damage (Franke et al. (2003) Oncogene 22:8983-98). Experiments were conducted to determine whether this effect was produced in an H-Ras-transformed cell strain (PH3MT), which has a higher expression of Spry2 compared to its parental cell strain (MSU-1.1) (FIG. 10A). In these experiments, both MSU-1.1 and PH3MT cells were plated at a density of 2×10^5 cells per dish and allowed to grow overnight. […]

[3] = test system: PH3MT cells; assay: Tumorigenicity assay in athymic mice; type: in vivo; details: one million cells per site s.c., at least 6 months
Protocol: Cells were assayed for their ability to form tumors in athymic mice as described in Lou et al. (2005) Cancer Res. 65:1007-1017. The mice were examined weekly for tumor growth, and the tumors were removed when they reached 1 cm in diameter. In the absence of tumor formation six months after the injection, the mice were sacrificed.
When these same cell strains were compared for their ability to form tumors in athymic mice (Table 1), the control cell strains (PH3MT-VC and PH3MT-SC) formed 0.5 cm^3 tumors in 21 days (12/12 tumors formed per cell strain).

[4] = test system: ERK; assay: EGF-induced activation of ERK (pERK Western blot); type: cell-based, human; details: serum starved, EGF 100 ng/ml; vs scrambled RNAi strain PH3MT-SC
Protocol: Whole cell lysates were prepared as described in Lou et al. (2005) Cancer Res. 65:1007-1017. The protein content was quantified with Coomassie protein reagent from Pierce (Rockford, Ill.). Whole cell lysate (50 μg) was separated by SDS-PAGE. The protein was transferred to polyvinylidene fluoride membrane (Millipore, Billerica, Mass.), and immunoblotting was carried out using standard techniques. The signal was detected with the SuperSignal® reagent (Pierce). Antibodies against EGFR, ERK, pERK, c-Cbl, and H-Ras were purchased from Santa Cruz Biotechnology, Inc. (Santa Cruz, Calif.); Sprouty2 from Calbiochem (San Diego, Calif.); Pan-Ras from Cytoskeleton, Inc. (Denver, Colo.) and Ku80 from Serotec (Raleigh, N.C.). The Ku80 protein expression was used as a loading control.
To determine if the expression of Sprouty2 in PH3MT cells was associated with an increase in the activation of the RAS/MAPK cascade, EGF-induced activation of ERK was examined by Western blotting with a phosphorylation-specific antibody.

[5] = test system: p53; assay: p53 level, Western blot; type: cell-based, human; details: PH3MT-2A3 vs PH3MT-SC
Protocol: (§1) Whole cell lysates were prepared as described in Lou et al. ((2005) Cancer Res. 65:1007-1017). Protein concentration was quantified with Coomasie protein reagent from Pierce (Rockford, Ill.). Whole cell lysates (50 μg) were separated by SDS-PAGE. The electrophoresed proteins were transferred to a polyvinylidene fluoride membrane (Millipore, Billerca, Mass.), and immunoblotted using standard techniques. Antibodies against pp 85, p85, c-Cbl, Mdm2, p53 and H-Ras were purchased form Santa Cruz (Santa Cruz, Calif.); Spry2 from Calbiochem (San Diego, Calif.); pAkt and Akt from Cell Signaling (Danver, Mass.) and Ku80 from Serotec (Raleigh, N.C.). Ku80 protein was used as a loading control. Label signals were detected with the SuperSignal reagent (Pierce, Rockford, Ill.).
(§2) The MDM2/p53 pathway plays a critical role in UV-induced apoptosis (Lakin et al. (1999) Oncogene 18(53):7644-7655). Akt phosphorylates MDM2 on serine residue 166, resulting in the stabilization of MDM2 (Ogawara et al. (2002) J. Biol. Chem., 277(24):21843-21850). This enhances the ubiquitination of p53 by MDM2, which is followed by degradation of the p53. […] To test this proposal, the amount of MDM2 phosphorylated at Ser166 was determined in a cell strain with down regulated Spry2 (PH3MT-2A3) and in a control cell strain (PH3MT-SC). […]

[6] = test system: HRas/c-Cbl; assay: Co-immunoprecipitation of c-Cbl with HRas; type: cell-based, human; details: PH3MT-2A3 vs control cells, anti-HRas immunoprecipitation
Protocol: Generally, in experiments employing immunoprecipitation, whole cell lysates (250 μg) were precleared with an appropriate IgG antibody for 30 mins., then incubated with an antibody specific to HRas for 2 hrs., followed by incubation with protein-G for 1 hr. to overnight at 4° C. When an Hras-agarose conjugate was used (Ras-cCbl/CIN85), the lysates were incubated with the agarose conjugate for 3 hrs. to overnight. The immunoprecipitated fraction was washed several times with lysis buffer and assayed by Western blotting. Experiments were generally conducted in replicate, e.g., experiments were repeated 3 to 4 times for those examining Ras-Spry2 and Ras-c-Cbl interactions, and two times for those examining the Ras-CIN85 interaction.

[7] = test system: MDM2; assay: MDM2 level and Ser166 phosphorylation, Western blot; type: cell-based, human; details: PH3MT-2A3 vs PH3MT-SC
Protocol: as §1, §2

[8] = test system: PH3MT cells; assay: Stress fiber staining (phalloidin); type: cell-based, human; details: PH3MT-2A3 vs PH3MT-SC
Protocol: Stress fibers were detected with Alexa-fluor 488 conjugated phalloidin stain from Invitrogen (Carlsbad, Calif.), which was used according to the manufacturer's instructions. Briefly, cells at log phase were fixed in 10% normal buffered formalin solution for 10 mins. The fixed cells were washed twice in phosphate buffered saline (PBS), and then treated with 0.1 Triton X-100 in PBS for 3-5 mins. at room temperature. Subsequently, the cells were incubated with blocking solution (1% BSA in PBS) for 20 mins. at room temperature. Finally, the cells were incubated with phalloidin stain for 30 mins. and analyzed by fluorescent microscopy.
One function of Rac1 is to inhibit stress fiber formation (Burridge et al. (2004) Cell 116(2): 167-179). […] This is consistent with the lower level of Rac1 activation in these cells (FIG. 12B). Accordingly, one assay that can be used to analyze the effects of a compound that affects Spry2 expression or activity is to assay stress fiber formation in the presence and absence or a compound in a cell that can express Rac1.

[9] = test system: Rac1; assay: Rac1 activation assay (PAK-CRIB pull-down); type: cell-based, human; details: PH3MT-SC (endogenous Spry2) vs PH3MT-2A3
Protocol: Pull-down assays were performed using whole cell lysates (2 mg). The lysates were pulled down with PAK-Cdc42/Rac1 interacting region (CRIB)-conjugated beads from Cytoskeleton (Denver, Colo.) using methods provided by the manufacturer. […] These experiments were repeated 3 times in H-Ras-transformed cells and twice in immortalized fibroblasts.
To determine whether Spry2 plays a role in the activation of Rac1, a Rac1 activation assay was carried out to determine the level of activated Rac1 in control HRas-transformed cells (PH3MT-SC) and in HRas-transformed cells with down regulated Spry2 (PH3MT-2A3).

Q: What does the source list for `COc1cc2ncnc(Nc3cccc(Cl)c3)c2cc1OC` [AG1478]?
A: ability of cells to grow in medium with reduced serum ([1]; PH3MT cells, 0.1% serum, AG1478 6 μM): decrease in the ability of H-Ras-transformed cells to grow in medium with reduced serum; decrease in growth compared with effect on MSU-1.1 cells ([1]; PH3MT vs MSU-1.1, AG1478 6 μM, p<0.001): significantly greater than the corresponding effect of the same inhibitor on the MSU-1.1 cells; number of cells undergoing apoptosis in response to UV radiation [2]: increased the number of Ras-transformed cells undergoing apoptosis

B1: Spry2-shRNA-5: Sprouty2-specific shRNA construct targeting position 492 of the Spry2 coding region; PH3MT-5A3 cell strain was derived with it (nucleic acid)
chain: GATCCCCGCCACTGAGCAAGGAAGATTTCAAGAGAATCTTCCTTGCTCAGTGGCTTTTTGGAAA
Q: With B1 as the molecule, how does the “Tumor incidence (ratio of tumors formed to sites injected)” value ([3]; cell strain PH3MT-5A3 (derived with Spry2-shRNA-5)) read?
A: 0/12

B2: Spry2-shRNA-2: Sprouty2-specific shRNA construct targeting position 399 of the Spry2 coding region; PH3MT-2A3 and PH3MT-2B9 cell strains were derived with it (nucleic acid)
chain: GATCCCCGAGACTGCTAGGATCATCCTTCAAGAGAGGAGTGATCCTAGCAGCTCTTTTTGGAAA
Q: What does the source list for B2?
A: EGF-induced ERK activation [4]: decreased levels of ERK activation; level of p53 following UV treatment [5]: higher; binding of endogenous c-Cbl to HRas [6]: abolished; level of MDM2 following UV treatment [7]: decrease in the level of MDM2 following UV treatment; stress fiber formation [8]: more pronounced stress fibers; Tumor incidence (ratio of tumors formed to sites injected) ([3]; cell strain PH3MT-2A3 (derived with Spry2-shRNA-2)): 0/12; Tumor incidence (ratio of tumors formed to sites injected) ([3]; cell strain PH3MT-2B9 (derived with Spry2-shRNA-2)): 0/12; level of active Rac1 [9]: significantly higher level of active Rac1, compared to cell strain with down-regulated Spry2 expression
